Source: patent US20160176984A1 (published 2016)

What was measured:
[1] = target: T1, Her-2 on Her-2 over-expressing human breast cancer cell lines SKBR3 and Calu-3 (human, UniProt P04626 23-1255); assay: cell-based or functional assay
[2] = target: T1, Her-2 on Her-2 over-expressing human …; assay: FACS on SKBR3 cells, anti-human Fc-PE detection
Procedure: (§1) Antigen binding was also determined by SPR. Biacore CM5 chips were coated with different amounts of human soluble Her-2 followed by addition of increasing concentrations of Fcabs. […] Antigen binding was also assessed by FACS using the Her-2 over-expressing human breast cancer cell lines SKBR3 and Calu-3. 1×10⁵ cells were incubated with increasing concentrations of Fcabs for 60 minutes on ice. Then, unbound antibodies were removed by centrifugation and washing. Cell bound Fcabs were detected by incubation with anti-human Fc specific antibodies conjugated to phycoerythrin (Sigma) for 60 minutes on ice. After washing the cells, the intensity of fluorescence on the cell surface was measured in a FACS Calibur instrument (Beckton Dickinson).

[3] = target: T2, Human soluble Her-2 (Bender Med Systems, Austria) (human, UniProt P04626 23-652, limits assumed); assay: ELISA, human soluble Her-2 coated at 2 ug/ml, anti-Fc CH2-HRP detection
T2 construct: given only as 'human soluble Her-2'; It was biotinylated (sulfo-LC-LC-biotin) for the yeast FACS selections; also called recombinant antigen Her2 (Bendermedsystems); Her2-biotin
Procedure: Human soluble Her-2 (Bender Med Systems, Austria) was coated to plastic at 2 μg/ml. After washing and blocking unspecific binding sites, increasing concentrations of Fcabs were added. To detect Her-2 bound Fcabs, anti-Fc CH2 domain specific monoclonal antibodies which were conjugated to horse radish peroxidase (Serotec) were added.

[4] = target: T2, Human soluble Her-2 (Bender Med …); assay: SPR (Biacore), human soluble Her-2 on CM5 chip, Fcab as analyte
Procedure: as §1

[5] = target: T2, Human soluble Her-2 (Bender Med …); assay: assay not stated; told under affinity maturation and FACS selection with Her2
[6] = target: T3, Fcab wt expressed on yeast (human, UniProt P0DOX5 218-449 = IgG part); assay: FACS of yeast-displayed Fcab wt, CD64 staining
T3 construct: also called non-randomized Fc fragments (Fcab wt) expressed on yeast; not shown: Aga2 display fusion partner of the pYD1-derived vector

wild type Fcab = target: T4, wild type Fcab (human, UniProt P0DOX5 218-449 = IgG part); assay: SPR (Biacore), Fcab captured on Protein A chip, human soluble CD64 at 5 ug/ml as analyte
T4 construct: also called Fcab wt; wtFcab

EC50 [2] [nM] | EC50 [3] [nM] | Kd [4] [nM] | EC50 [5] [nM] | binding result [6] | binding result (wild type Fcab) | Binder | SKBR3 cell killing (ADCC with human NK cells, 7-AAD/CFSE FACS), EC50 [1] [nM]
5.2 | 16.1 |  |  |  |  | ABEFs0101 (designed binder, The EF loop is given with 13 residues under 'AA198ff') EPKSCDKTHTCPPCPAPELLGGPSVFLFPPKPKDTLMISRTPEVTCVVVDVSHEDPEVKFNWYVDGVEVHNAKTKPREEQYNSTYRVVSVLTVLHQDWLNGKEYKCKVSNKALPAPIEKTISKAKGQPREPQVYTLPPSRDEYLHGDVSLTCLVKGFYPSDIAVEWESNGQPENNYKTTPPVLDSDGSFFLYSKLTVARYSPSMWRWGHGNVFSCSVMHEALHNHYTQKSLSLSPGK | 1
10.3 | 4.8 | 8.6 | 18.9 |  |  | H10-03-6 (designed binder, Soluble Fcab; The EF loop is given with 13 residues under 'AA198ff'; also called H10-03-6 clone) EPKSCDKTHTCPPCPAPELLGGPSVFLFPPKPKDTLMISRTPEVTCVVVDVSHEDPEVKFNWYVDGVEVHNAKTKPREEQYNSTYRVVSVLTVLHQDWLNGKEYKCKVSNKALPAPIEKTISKAKGQPREPQVYTLPPSRDEYLHGDVSLTCLVKGFYPSDIAVEWESNGQPENNYKTTPPVLDSDGSFFLYSKLTVPRHSARMWRWAHGNVFSCSVMHEALHNHYTQKSLSLSPGK | 1.1
 |  |  |  | binds | binds | human soluble CD64 (receptor, UniProt P12314 16-288, looked up, also called CD64 (R&D Systems)) QVDTTKAVITLQPPWVSVFQEETVTLHCEVLHLPGSSSTQWFLNGTATQTSTPSYRITSASVNDSGEYRCQRGLSGRSDPIQLEIHRGWLLLQVSSRVFTEGEPLALRCHAWKDKLVYNVLYYRNGKAFKFFHWNSNLTILKTNISHNGTYHCSGMGKHRYTSAGISVTVKELFPAPVLNASVTSPLLEGNLVTLSCETKLLLQRPGLQLYFSFYMGSKTLRGRNTSSEYQILTARREDSGLYWCEAATEDGNVLKRSPELELQVLGLQLPTP | 
